Assay results reported in publication PMC9316223, “Can Modern Molecular Modeling Methods Help Find the Area of Potential Vulnerability of Flaviviruses?” (International Journal of Molecular Sciences, 2022).

How the values were obtained:
Details in all cases: both partners purified
[1] = molecular target: T1, TEF1, fragment of TBEV E protein containing 1-187 aa (Tick-borne encephalitis virus, strain …, UniProt Q01299); test: far-Western, overlay or dot blot
T1 construct: source: E. coli BL21(DE3), purified (lysis buffer with 8 M urea, Ni-IMAC Sepharose)
T1 sequence (Q01299 whole entry, looked up, the tested form may be a part): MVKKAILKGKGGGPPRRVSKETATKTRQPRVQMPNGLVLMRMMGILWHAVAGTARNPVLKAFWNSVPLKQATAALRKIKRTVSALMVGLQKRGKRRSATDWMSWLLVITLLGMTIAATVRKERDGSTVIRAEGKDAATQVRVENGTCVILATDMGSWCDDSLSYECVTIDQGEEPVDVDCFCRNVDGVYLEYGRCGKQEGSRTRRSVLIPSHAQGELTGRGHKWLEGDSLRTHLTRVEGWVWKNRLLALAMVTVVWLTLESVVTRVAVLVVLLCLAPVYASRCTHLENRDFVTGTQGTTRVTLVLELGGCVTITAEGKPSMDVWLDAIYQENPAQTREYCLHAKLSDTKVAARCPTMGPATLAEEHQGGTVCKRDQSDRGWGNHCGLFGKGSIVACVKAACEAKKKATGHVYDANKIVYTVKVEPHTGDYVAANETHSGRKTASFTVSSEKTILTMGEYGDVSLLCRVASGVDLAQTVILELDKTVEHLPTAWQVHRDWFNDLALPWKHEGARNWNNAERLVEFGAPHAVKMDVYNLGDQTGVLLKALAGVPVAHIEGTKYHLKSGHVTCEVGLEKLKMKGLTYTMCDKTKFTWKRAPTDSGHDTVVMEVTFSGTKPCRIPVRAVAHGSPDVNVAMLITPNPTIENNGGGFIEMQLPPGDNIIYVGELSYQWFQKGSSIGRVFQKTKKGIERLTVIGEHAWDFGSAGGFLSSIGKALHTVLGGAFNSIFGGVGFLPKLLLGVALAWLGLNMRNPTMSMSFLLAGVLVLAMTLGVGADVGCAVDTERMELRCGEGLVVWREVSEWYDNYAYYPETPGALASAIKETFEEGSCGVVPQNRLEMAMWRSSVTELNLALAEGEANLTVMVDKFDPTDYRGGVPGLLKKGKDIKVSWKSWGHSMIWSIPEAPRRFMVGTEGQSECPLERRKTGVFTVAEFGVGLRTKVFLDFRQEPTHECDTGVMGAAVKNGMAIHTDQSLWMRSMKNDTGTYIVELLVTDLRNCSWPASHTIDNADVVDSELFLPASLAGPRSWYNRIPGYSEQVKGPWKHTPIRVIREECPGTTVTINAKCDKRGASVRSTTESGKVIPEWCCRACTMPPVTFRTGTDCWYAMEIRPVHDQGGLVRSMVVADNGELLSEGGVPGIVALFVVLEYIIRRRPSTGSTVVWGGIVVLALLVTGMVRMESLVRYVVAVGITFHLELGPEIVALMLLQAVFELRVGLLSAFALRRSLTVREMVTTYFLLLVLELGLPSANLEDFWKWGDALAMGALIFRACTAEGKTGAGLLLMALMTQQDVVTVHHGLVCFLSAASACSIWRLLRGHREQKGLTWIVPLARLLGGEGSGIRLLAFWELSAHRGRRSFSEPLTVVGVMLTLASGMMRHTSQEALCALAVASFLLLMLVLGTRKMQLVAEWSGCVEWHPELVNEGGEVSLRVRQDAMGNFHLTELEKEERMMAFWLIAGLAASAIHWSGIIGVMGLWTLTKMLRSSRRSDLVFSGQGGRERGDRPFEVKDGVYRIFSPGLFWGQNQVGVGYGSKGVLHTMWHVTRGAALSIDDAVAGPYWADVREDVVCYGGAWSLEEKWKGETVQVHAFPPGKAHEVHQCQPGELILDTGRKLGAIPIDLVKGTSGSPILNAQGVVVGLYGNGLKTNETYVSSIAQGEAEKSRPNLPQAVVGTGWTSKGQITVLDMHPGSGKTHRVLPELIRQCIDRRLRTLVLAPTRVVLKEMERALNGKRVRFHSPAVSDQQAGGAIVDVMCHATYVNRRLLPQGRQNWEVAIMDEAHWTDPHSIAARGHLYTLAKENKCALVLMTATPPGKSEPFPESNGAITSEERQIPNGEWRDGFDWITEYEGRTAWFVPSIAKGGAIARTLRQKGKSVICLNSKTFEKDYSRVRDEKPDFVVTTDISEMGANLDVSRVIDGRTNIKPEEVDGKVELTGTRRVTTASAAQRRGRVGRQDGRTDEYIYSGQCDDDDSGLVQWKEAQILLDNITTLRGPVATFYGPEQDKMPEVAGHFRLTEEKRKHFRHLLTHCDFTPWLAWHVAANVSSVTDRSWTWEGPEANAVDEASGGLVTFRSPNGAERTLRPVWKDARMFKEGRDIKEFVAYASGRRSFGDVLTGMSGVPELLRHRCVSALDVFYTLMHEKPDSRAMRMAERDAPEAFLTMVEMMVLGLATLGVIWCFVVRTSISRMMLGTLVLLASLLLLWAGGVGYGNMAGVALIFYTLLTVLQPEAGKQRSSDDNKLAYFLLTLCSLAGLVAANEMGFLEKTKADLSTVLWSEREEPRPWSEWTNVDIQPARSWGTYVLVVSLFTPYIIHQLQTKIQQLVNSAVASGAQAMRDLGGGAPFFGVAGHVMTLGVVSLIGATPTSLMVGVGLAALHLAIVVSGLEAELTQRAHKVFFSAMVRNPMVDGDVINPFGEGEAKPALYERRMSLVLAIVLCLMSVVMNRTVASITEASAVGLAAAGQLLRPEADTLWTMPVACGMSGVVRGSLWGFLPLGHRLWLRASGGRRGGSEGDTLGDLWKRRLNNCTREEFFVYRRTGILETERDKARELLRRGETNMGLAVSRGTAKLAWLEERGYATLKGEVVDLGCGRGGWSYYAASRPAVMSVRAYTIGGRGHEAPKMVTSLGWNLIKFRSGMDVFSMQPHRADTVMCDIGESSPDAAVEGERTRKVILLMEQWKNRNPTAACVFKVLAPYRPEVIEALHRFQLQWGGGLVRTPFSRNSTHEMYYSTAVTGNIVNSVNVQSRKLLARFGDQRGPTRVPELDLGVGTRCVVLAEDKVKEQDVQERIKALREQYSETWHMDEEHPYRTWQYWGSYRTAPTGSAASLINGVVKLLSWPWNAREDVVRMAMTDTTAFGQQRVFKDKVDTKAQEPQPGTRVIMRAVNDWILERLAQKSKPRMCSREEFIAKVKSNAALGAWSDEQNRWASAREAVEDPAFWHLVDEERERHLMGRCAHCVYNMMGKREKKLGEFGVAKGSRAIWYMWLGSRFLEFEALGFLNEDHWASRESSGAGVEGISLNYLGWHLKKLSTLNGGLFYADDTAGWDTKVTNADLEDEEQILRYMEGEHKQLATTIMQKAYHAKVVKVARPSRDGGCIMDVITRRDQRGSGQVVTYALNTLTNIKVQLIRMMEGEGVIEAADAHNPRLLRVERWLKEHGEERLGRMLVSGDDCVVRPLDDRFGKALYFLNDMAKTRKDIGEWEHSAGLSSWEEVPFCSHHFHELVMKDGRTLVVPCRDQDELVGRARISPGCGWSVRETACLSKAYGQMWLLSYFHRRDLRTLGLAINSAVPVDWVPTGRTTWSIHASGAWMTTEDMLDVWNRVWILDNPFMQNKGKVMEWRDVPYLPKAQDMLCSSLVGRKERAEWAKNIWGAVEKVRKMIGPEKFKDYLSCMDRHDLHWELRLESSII

[2] = molecular target: T2, WEF1, fragment of WNV E protein containing 1-186 aa (West Nile virus, strain 956 …, UniProt P06935); test: far-Western, overlay or dot blot; dot blot: recombinant proteins (1 µL at 1.5 mg/mL) adsorbed onto nitrocellulose; 10H10 mAb 2 μg/mL in PBS, 0.1% Tween-20, 1% BSA for 10 min; detected with goat anti-mouse IgG conjugated with alkaline phosphatase
T2 construct: envelope protein E of West Nile virus strain 956 (genome NC_001563.2), residues 1-186; numbers count on: the E protein (cut product of the polyprotein); Cloned into pET32 (BamHI/XhoI); the vector may add further linker and tag residues between thioredoxin and the insert; source: E. coli BL21(DE3), purified (lysis buffer with 8 M urea, Ni-IMAC Sepharose)

[3] = molecular target: T3, ZEF1, fragment of ZIKV E protein containing 1-187 aa (Zika virus, strain MR-766 (KX377335.1), UniProt A0A192GPS6); test: as above
T3 construct: envelope protein E of Zika virus strain MR-766 (genome KX377335.1), residues 1-187; numbers count on: the E protein (cut product of the polyprotein); Cloned into pET32 (NcoI/XhoI); the vector may add further linker and tag residues; The UniProt entry recalled is of strain Mr 766 from another GenBank record and may differ in a few residues from KX377335.1; source: E. coli BL21(DE3), purified …

[4] = molecular target: T4, DEF1, fragment of DENV E protein containing 1-184 aa (Dengue virus 3, strain Sri …, UniProt Q6YMS4); test: as above
T4 construct: envelope protein E of dengue virus 3 strain Sri Lanka/1266/2000 (genome AY099336.1), residues 1-184; numbers count on: the E protein (cut product of the polyprotein); Cloned into pET32 (BamHI/XhoI); the vector may add further linker and tag residues; source: E. coli BL21(DE3), purified (lysis buffer with 8 M urea, Ni-IMAC Sepharose)

Measured: binding result

B1: 10H10 monoclonal antibody (antibody, V domains shown)
VH: VKLEESGGGLVKPGGSLKLSCAASGFSFSDYYMYWVRQTPEKRLEWVATISDGGSHTSYRDSVKGRFTISRDNGKNNLYLQMSSLKSEDTAMYYCVRGAYWGQGTLVTVSS
VL: not shown
notes: also called 10H10 mAb; 10H10 antibody
binds: [1] | [2] | [3] | [4]
